Test results published in patent US20210380675A1 (Kyowa Kirin, published 2021).

Tests used:
[1] = target: T1, cynomolgus IL-36α, truncated (cynomolgus macaque (Macaca fascicularis), UniProt Q9UHA7 14-158 (human entry), limits assumed); assay: SPR, Biacore T200, antibody on chip, IL-36 as analyte, 1:1 Langmuir fit
T1 construct: Untagged after removal of the His-SUMO tag; also called cynomolgus IL-36 alpha; cyIL-36alpha
T1 chain: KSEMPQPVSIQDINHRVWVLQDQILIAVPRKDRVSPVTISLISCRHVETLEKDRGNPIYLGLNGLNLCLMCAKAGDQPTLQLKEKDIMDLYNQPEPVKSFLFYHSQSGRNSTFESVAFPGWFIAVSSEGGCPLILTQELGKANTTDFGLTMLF
Procedure: (§1) Antibodies were further tested for their binding to recombinant human or cynomolgus IL36α, IL-36γ in Biacore assays. In order to kinetically analyze the binding activity of the IL-36α and IL-36γ dual antagonist antibodies, the binding activity to human and cynomolgus IL-36α and IL-36γ was measured by surface plasmon resonance method (SPR). All of the following manipulations were carried out using a Biacore T200 (GE Healthcare Life Sciences, Pittsburgh, Pa.).
(§2) To determine antibody affinity to human and cynomolgus IL36, recombinant antibodies were immobilized on a CM5 sensor chip (cat# BR100012, GE Healthcare Life Sciences, Pittsburgh, Pa.) by an amine coupling chemistry. In particular, the kinetic assay was carried out by immobilizing on the chip approximately 2000 RU of recombinant antibody. Thereafter, recombinant human or cynomolgus IL36 proteins, serially diluted from a high concentration, were allowed to run at a flow rate of 30 μL/min onto the chip for 420 seconds. The dissociation time was 3600 seconds and the binding curves were measured at 25° C. Regeneration was performed with 10 mM glycine pH 1.5 for 30s. Alternatively, the analytes were injected with increasing concentrations in a single cycle, the surface not being regenerated between injections, using a method referred to as “single cycle kinetics.” In particular, either anti-human or anti-mouse Fc specific antibodies were immobilized on a CM5 sensor chip (cat# BR100012, GE Healthcare Life Sciences, Pittsburgh, Pa.) by an amine coupling chemistry. Thereafter, IL-36α and IL-36γ dual antagonist mouse/human chimeric or mouse antibodies were captured at approximately 200 RUs, followed by injections of increasing concentrations of recombinant human and cynomolgus IL36 proteins. The association time was 300 seconds, and the final dissociation time was 1200 seconds. At the end of the analyte injections, the surface was regenerated with either 3M MgCl₂ (anti-human Fc capture antibody) for 30 s or 10 mM glycine-HCl pH 1.7 for 180 s (anti-mouse IgG capture antibody).
(§3) The raw data were double referenced by subtraction of the signals from a reference flow cell without immobilized ligand and a buffer blank. The sensorgram corresponding to each concentration was obtained.

[2] = target: T2, cynomolgus IL-36γ, truncated (cynomolgus macaque (Macaca fascicularis), UniProt Q9NZH8 18-167 (human entry), limits assumed); assay: as above
T2 construct: Untagged after removal of the His-SUMO tag; also called cynomolgus IL-36 gamma; cyIL-36gamma
T2 chain: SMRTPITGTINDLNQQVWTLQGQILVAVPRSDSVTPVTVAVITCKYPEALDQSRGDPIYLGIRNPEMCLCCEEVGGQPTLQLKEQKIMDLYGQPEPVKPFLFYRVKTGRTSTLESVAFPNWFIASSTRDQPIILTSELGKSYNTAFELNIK
Procedure: as §1, §2, §3

[3] = target: T3, human IL-36α(R12), truncated (human, UniProt Q9UHA7 6-158); assay: as above
T3 construct: Untagged after removal of the His-SUMO tag; also called hIL-36alpha
T3 chain: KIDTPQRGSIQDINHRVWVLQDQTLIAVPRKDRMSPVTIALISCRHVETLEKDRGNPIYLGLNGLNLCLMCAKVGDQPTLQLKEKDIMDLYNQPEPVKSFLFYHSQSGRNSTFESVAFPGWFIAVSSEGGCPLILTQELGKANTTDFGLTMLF
Procedure: as §1, §2, §3

[4] = target: T4, human IL-36γ, truncated (human, UniProt Q9NZH8 18-169); assay: as above
T4 construct: Bought from R&D Systems (cat 6835-IL); also called human IL-36 gamma; hIL-36gamma
T4 sequence: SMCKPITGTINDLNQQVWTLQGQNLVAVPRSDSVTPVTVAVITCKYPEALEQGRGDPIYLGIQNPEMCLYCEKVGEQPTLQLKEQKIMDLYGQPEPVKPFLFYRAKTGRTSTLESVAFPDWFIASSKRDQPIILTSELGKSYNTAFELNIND
Procedure: as §1, §2, §3

[5] = target: T3, human IL-36α(R12), truncated; assay: cell-based or functional assay
[6] = target: T4, human IL-36γ, truncated; assay: cell-based or functional assay
[7] = target: T1, cynomolgus IL-36α, truncated; assay: SPR, Biacore, 1:1 Langmuir fit; heads of c3 and c4 printed swapped
Procedure: (§4) The humanized antibodies obtained in Example 6 were tested for their binding to recombinant human or cynomolgus macaque IL36a and IL-36γ in Biacore assays. The association time was set to 60 seconds, and the final dissociation time was set to 600 seconds. Equilibrium dissociation constant KD (kd/ka) of exemplary antibodies was determined using a 1:1 Langmuir fit model (see Tables 17-18 below).

[8] = target: T2, cynomolgus IL-36γ, truncated; assay: as above
Procedure: as §4

[9] = target: T3, human IL-36α(R12), truncated; assay: as above
Procedure: as §4

[10] = target: T4, human IL-36γ, truncated; assay: as above
Procedure: as §4

[11] = target: T2, cynomolgus IL-36γ, truncated; assay: cell-based or functional assay
[12] = target: T4, human IL-36γ, truncated; assay: cell-based or functional assay; remark: listed apart in the source
[13] = target: T1, cynomolgus IL-36α, truncated; assay: SPR, Biacore, 1:1 Langmuir fit
Procedure: as §4

[14] = target: T2, cynomolgus IL-36γ, truncated; assay: SPR, Biacore, 1:1 Langmuir fit
Procedure: as §4

[15] = target: T3, human IL-36α(R12), truncated; assay: SPR, Biacore, 1:1 Langmuir fit
Procedure: as §4

[16] = target: T4, human IL-36γ, truncated; assay: SPR, Biacore, 1:1 Langmuir fit
Procedure: as §4

[17] = target: T1, cynomolgus IL-36α, truncated; assay: cell-based or functional assay
[18] = target: T3, human IL-36α(R12), truncated; assay: cell-based or functional assay
[19] = target: T3, human IL-36α(R12), truncated; assay: cell-based or functional assay
[20] = target: T4, human IL-36γ, truncated; assay: cell-based or functional assay; remark: listed apart in the source
[21] = target: T5, human IL-36α (R&D Systems cat#6995-IL-010/CF) (human, UniProt Q9UHA7 6-158); assay: cell-based or functional assay
T5 sequence (looked up): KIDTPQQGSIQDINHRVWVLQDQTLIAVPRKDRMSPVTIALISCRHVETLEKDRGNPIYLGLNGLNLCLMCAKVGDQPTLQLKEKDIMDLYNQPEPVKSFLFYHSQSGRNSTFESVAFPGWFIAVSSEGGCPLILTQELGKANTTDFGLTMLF

[22] = target: T4, human IL-36γ, truncated; assay: cell-based or functional assay; remark: listed apart in the source

B1: 144L249B (antibody, V domains shown)
VH: EVQLQQSGAELVKPGASVKLSCTASGFNIKDTYIYWVKQRPEQGLEWIGRIDPAIGTTRYDPKFQGKATLTADTSSNTAFLQLSSLTSEDTAVYYCARYDYSGSSFYFDYWGRGTTLTVSS
VL: QAVVTQESALTTSPGETVTLTCRSSTGAVTTSNYANWVQEKPDHLFTGLIGGTNNRAPGVPARFSGSLIGDKAALTITGAQTEDEAIYFCALWYSNHLVFGGGTKLTVL
notes: Mouse monoclonal from hybridoma; mouse IgG heavy and lambda light chain; also called mouse antibody 144L249B
In the case of B1, the Kd [1] is reported as 1.28 nM, the koff [1] is reported as 0.000839 s⁻¹ and the kon [1] is reported as 658000 M⁻¹ s⁻¹. The Kd [2] was 0.312 nM, the koff [2] was 0.000197 s⁻¹ and the kon [2] was 631000 M⁻¹ s⁻¹. The Kd [3] was 1.67 nM, the koff [3] was 0.000899 s⁻¹ and the kon [3] was 539000 M⁻¹ s⁻¹. It also gave a Kd [4] of 0.377 nM, a koff [4] of 0.000194 s⁻¹ and a kon [4] of 516000 M⁻¹ s⁻¹. The “IC50 of IL-8 secretion, primary human monocytes, 20 nM human IL-36α, FIG. 5A” value [5] was 27.1 nM, the “IC50 of IL-8 secretion, primary human monocytes, 6 nM human IL-36γ, FIG. 5C” value [6] was 12 nM and the “IC50 of IL-8 secretion, primary human monocytes, 50 nM human IL-36γ, FIG. 5D” value [6] was 38.7 nM. The koff [7] was 0.00105 s⁻¹, the kon [7] was 905000 M⁻¹ s⁻¹ and the koff [8] was 0.000326 s⁻¹. For the same binder, the kon [8] was 1.13e+06 M⁻¹ s⁻¹, the koff [9] was 0.000785 s⁻¹ and the kon [9] was 515000 M⁻¹ s⁻¹. The koff [10] was 0.000395 s⁻¹, the kon [10] was 990000 M⁻¹ s⁻¹ and the “IC50 of IL-8 secretion, HaCaT, 10 nM cynomolgus IL-36γ, FIG. 2D” value [11] was 11.8 nM. The “IC50 of IL-8 secretion, HaCaT, 10 nM human IL-36γ, FIG. 1F” value [12] was 9.81 nM, the Kd [13] was 1.16 nM and the Kd [14] was 0.288 nM. For the same binder, the Kd [15] was 1.53 nM, the Kd [16] was 0.399 nM and the “IC50 of IL-8 secretion, HaCaT, 10 nM cynomolgus IL-36α, FIG. 2B” value [17] was 7.94 nM. For the same binder, the “IC50 of IL-8 secretion, HaCaT, 10 nM human IL-36α, FIG. 1C” value [18] was 14.5 nM, the “IC50 of IL-8 secretion, primary human keratinocytes, 6.25 nM human IL-36α, FIG. 4A” value [19] was 13.8 nM and the “IC50 of IL-8 secretion, primary human keratinocytes, 8.4 nM human IL-36γ, FIG. 4C” value [20] was 9.28 nM.

B2: 144L249B LV9 HV11 (antibody, V domains shown)
VH: QVQLVQSGAEVKKPGASVKVSCKASGFNIKDTYIYWVRQAPGQGLEWIGRIDPAIGTTRYDPKFQGKATLTTDTSTNTAYLELSSLRSEDTAVYYCARYDYSGSSFYFDYWGQGTLVTVSS
VL: QAVVTQEPSLTVSPGGTVTLTCRSSTGAVTTSNYANWVQEKPGQLFTGLIGGTNDRAPGVPARFSGSLLGGKAALTLSGAQPEDEADYFCALWYSNHLVFGGGTKLTVL
notes: Humanized
For B2, the “IC50 of IL-8 secretion (AlphaLISA), HaCaT, 10 nM human IL-36α” value [21] was 7.68 nM, the “IC50 of IL-8 secretion (AlphaLISA), HaCaT, 10 nM human IL-36γ” value [22] was 16.5 nM and the koff [7] was 0.00135 s⁻¹. For the same binder, the kon [7] was 1.46e+06 M⁻¹ s⁻¹, the koff [8] was 0.000866 s⁻¹ and the kon [8] was 948000 M⁻¹ s⁻¹. The koff [9] was 0.00102 s⁻¹, the kon [9] was 791000 M⁻¹ s⁻¹ and the koff [10] was 0.000706 s⁻¹. It also gave a kon [10] of 888000 M⁻¹ s⁻¹, a Kd [13] of 0.927 nM and a Kd [14] of 0.913 nM. For the same binder, the Kd [15] was 1.29 nM and the Kd [16] was 0.795 nM.

B3: 144L249B LV7a HV11 (antibody, V domains shown)
VH: QVQLVQSGAEVKKPGASVKVSCKASGFNIKDTYIYWVRQAPGQGLEWIGRIDPAIGTTRYDPKFQGKATLTTDTSTNTAYLELSSLRSEDTAVYYCARYDYSGSSFYFDYWGQGTLVTVSS
VL: QAVVTQEPSLTVSPGGTVTLTCRSSTGAVTTSNYANWVQQKPGQAFTGLIGGTNDRAPGVPARFSGSLLGGKAALTISGAQPEDEADYFCALWYSNHLVFGGGTKLTVL
notes: Humanized
In the case of B3, the “IC50 of IL-8 secretion (AlphaLISA), HaCaT, 10 nM human IL-36α” value [21] is reported as 9.2 nM, the “IC50 of IL-8 secretion (AlphaLISA), HaCaT, 10 nM human IL-36γ” value [22] is reported as 25.8 nM and the koff [7] is reported as 0.0014 s⁻¹. It also gave a kon [7] of 1.4e+06 M⁻¹ s⁻¹, a koff [8] of 0.000831 s⁻¹ and a kon [8] of 913000 M⁻¹ s⁻¹. The koff [9] was 0.00103 s⁻¹, the kon [9] was 749000 M⁻¹ s⁻¹ and the koff [10] was 0.000678 s⁻¹. It also gave a kon [10] of 859000 M⁻¹ s⁻¹, a Kd [13] of 1 nM and a Kd [14] of 0.91 nM. The Kd [15] was 1.37 nM and the Kd [16] was 0.789 nM.

B4: 144L249B LV9 HV10b (antibody, V domains shown)
VH: QVQLVQSGAEVKKPGASVKVSCKASGFNIKDTYIYWVRQAPGQGLEWIGRIDPAIGTTRYDPKFQGKATLTTDTSTSTAYLELSSLRSEDTAVYYCARYDYSGSSFYFDYWGQGTLVTVSS
VL: QAVVTQEPSLTVSPGGTVTLTCRSSTGAVTTSNYANWVQEKPGQLFTGLIGGTNDRAPGVPARFSGSLLGGKAALTLSGAQPEDEADYFCALWYSNHLVFGGGTKLTVL
notes: Humanized
For B4, the “IC50 of IL-8 secretion (AlphaLISA), HaCaT, 10 nM human IL-36α” value [21] was 6.61 nM, the “IC50 of IL-8 secretion (AlphaLISA), HaCaT, 10 nM human IL-36γ” value [22] was 20.7 nM and the koff [7] was 0.00126 s⁻¹. It also gave a kon [7] of 1.34e+06 M⁻¹ s⁻¹, a koff [8] of 0.000969 s⁻¹ and a kon [8] of 855000 M⁻¹ s⁻¹. The koff [9] was 0.000989 s⁻¹, the kon [9] was 714000 M⁻¹ s⁻¹ and the koff [10] was 0.000728 s⁻¹. The kon [10] was 772000 M⁻¹ s⁻¹, the Kd [13] was 0.944 nM and the Kd [14] was 1.13 nM. The Kd [15] was 1.39 nM and the Kd [16] was 0.942 nM.
